Results as given in the DeepSol protein solubility set.

experiment: soluble on expression in E. coli; label from the status in PepcDB or PDB records

Row | Sequence | soluble on expression in E. coli
1 | MTNDTNITNDKDINANIAHDDHFNDSIVNEVILEDMKKNRIDHMKYLPDMEVLDSDIMDRVVAEMDAYDYDQYTAADVRAALSHEYRTLEDFKALLSPAAQPFIEEIAQAAQLETRKHFGNSVCMFTPLYISNYCENYCIYCGFNCHNKINRAKLNASEIEKEMAAIAKTGLQEILILTGESKKMSDVEYIGEACKIARKYFKVIGLEVYPMNSDEYAYLHECGADYVTVFQETYNSDKYETLHLAGHKRIFPYRVNAQERALKGGMRGVGFAALLGLDDFRKDALATGYHAYLLQKKYPRAEIAFSCPRLCPIINNDRINPKDVHETQLLQVVCAYRLFMPFASITISTREVARVRDNLVNIAATKISAGVSTGIGSHVDDIEDKGDDQFEISDGRSVDEVFNALLDNGLQPVMSDYIYV | not soluble
2 | MTNIERLERCADIMRRRWIYDPEAGLLFSRETKDVIKGSMTNKGHLVVTVHEGKFKVTLTYQKACYVYTYGAYDETLYEVHHVNLNKQDNRIKNIRLMPKEKHRRIHKNVRKLIRLGHTQWLQPQLIEQSL | not soluble
3 | MTNPLLTPFELPPFSKILPEHVVPAVTKALNDCRENVERVVAQGAPYTWENLCQPLAEVDDVLGRIFSPVSHLNSVKNSPELREAYEQTLPLLSEYSTWVGQHEGLYKAYRDLRDGDHYATLNTAQKKAVDNALRDFELSGIGLPKEKQQRYGEIATRLSELGNQYSNNVLDATMGWTKLVTDEAELAGMPESALAAAKAQAEAKELEGYLLTLDIPSYLPVMTYCDNQALREEMYRAYSTRASDQGPNAGKWDNSKVMEEILALRHELAQLLGFENYAFKSLATKMAENPQQVLDFLTDLAKRARPQGEKELAQLRAFAKAEFGVDELQPWDIAYYSEKQKQHLYSISDEQLRPYFPENKAVNGLFEVVKRIYGITAKERKDVDVWHPDVRFFELYDENNELRGSFYLDLYARENKRGGAWMDDCVGQMRKADGSLQKPVAYLTCNFNRPVNGKPALFTHDEVITLFHEFGHGLHHMLTRIETAGVSGISGVPWDAVELPSQFMENWCWEPEALAFISGHYETGEPLPKELLDKMLAAKNYQAALFILRQLEFGLFDFRLHAEFRPDQGAKILETLAEIKKLVAVVPSPSWGRFPHAFSHIFAGGYAAGYYSYLWADVLAADAFSRFEEEGIFNRETGQSFLDNILSRGGSEEPMDLFKRFRGREPQLDAMLEHYGIKG | soluble
4 | MTNPNIPDDLLAKIAKKMADKCWWYLGPMLKSGPRGRDIVYRPDVLKNANIFSMCDDPDDFYAAGHDPNDINSEGRYRPFFKWCLQAGNPTAIYHEGLRLVTHESDIQGAILHLERIAPRNAAATLACAILYICAGNAHMGGVYLRLFGSNHYALESEDARDI | soluble
5 | MTNQPTEIAIVGGGMVGGALALGLAQHGFSVTVIEHAEPAPFVADSQPDVRISAISAASVSLLKGLGVWDAVQAMRCHPYRRLETWEWETAHVVFDAAELKLPLLGYMVENTVLQQALWQALEAHPKVTLRVPTSLIALHRDNDLQELELKGGETIRAKLVIGADGANSQVRQMAGIGVHAWQYAQSCMLISVQCENDPGDSTWQQFTPDGPRAFLPLFDNWASLVWYDSPTRIRQLQNMNMAQLQAEIAKHFPSRLGYVTPLAAGAFPLTRRHALQYVQPGLALVGDAAHTIHPLAGQGVNLGYRDVDALIDVLVNARSYGEAWASYPVLKRYQMRRMADNFIMQSGMDLFYAGFSNNLPPLRFVRNLGLMAAERAGVLKRQALKYALGLLEHHHHHH | not soluble
6 | MTNSNNRQSEYPVDPLFLDRWSPRAFDGSPMPKEHLLTILDAAHWAPSASNHQPWRFVYAHKDSEDWPLFVELLMEGNQKWAKNASVLLFVISRDHTISHEGEKKPSATHSFDAGAAWFSLAMQAHLLGYHAHGMGGIFKDRIVEKLDIPDGFKVEAGVAIGTLTDKSILPDDLAEREVPSKRVPLADVAFEGRFTGKAD | soluble
7 | MTPGVDGVNKTMLQARLAVELQILRDELLSGHYQPLPARRVYIPKSNGKLRPLGIPALRDRIVQRAMLMAMEPIWESDFHTLSYGFRPERSVHHAIRTVKLQLTDCGETRGRWVIEGDLSSYFDTVHHRLLMKAVRRRISDARFMTLLWKTIKAGHIDVGLFRAASEGVPQGGVISPLLSNIMLNEFDQYLHERYLSGKARKDRWYWNNSIQRGRSTAVRENWQWKPAVAYCRYADDFVLIVKGTKAQVEAIREECRGVLEGSLKLRLNMDKTKIPHVNDGFIFLGHRLIRKRSRYGEMRVVSTIPQEKARNFAASLTALLWKVRISGEILLGLEHHHHHH | soluble
8 | MTPNGHHFRTVIYNAAAVGNLQRIKVFTINSRNDRQWIIDCFNSDQDGRYPLVIAARNGHANVVEYLLEIGADPSVRGVVEFDNENIQGTPPLWAASAAGHIEIVKLLIEKANADVNQATNTRSTPLRGACYDGHLDIVKYLLEKGADPHIPNRHGHTCLMIASYRNKVGIVEELLKTGIDVNKKTERGNTALHDAAESGNVEVVKILLKHGSVLMKDIQGVDPLMGAALSGFLDVLNVLADQMPSGIHKRDALKLLGSTLLDKKMDAMSAMNCWKQSMEVPLHADDLRLVREMETFFEPQEVYEYQREAQNIAQVELLDGNIEAQRMQALVIRERILGGAHTDVHYYLRFRGAVYCDMGQMNRCYDLWKHALELQQKHFAPLYYGTITTLQSFHETFSMSLNDFVNNHHANRNLRVRSSWVKYVFNGVCLELERAAAWTGAPLLEDTECCGKERCQHATEESEYKKLVYVAVHLVNVLERLSLPSAHIDDSDEEKEPKADVRRLMIVCHELHIPLLHHTLEERIPDSNSAELGLPKAAVLEQLLELDLDVNATDKNNDTPMHILLRAREFRKSLVRALLVRGTWLFARNRHGDVVLNVMKRMKALNHANFDDLPLGRHITLAGLVANAMRVKYPKKFVGVEEQMPLELRRFYLAH | not soluble
9 | MTPSPEASEGPCVSKLRNEPLGALTPYVGVVDGPEVKKSKKIHGGDSAILGTYKMQSRFNRGVLLMVNIMDYPDQNRRRIGAEKDSKSLIHLFQELNFTIFPYGNVNQDQFFKLLTMVTSSSYVQNTECFVMVLMTHGNSVEGKEKVEFRDGSVVDMQKIKDHFQTAKCPYLVNKPKVLMFPFARGDEYDLGHPKNQGNLMEPVYTAQEEKWPDTQTEGIPSPSTNVPSLADTLVCYANTPGYVTHRDLDTGSWYIQKFCQVMADHAHDTDLEDILKKTSEAVGNKRTKKGSMQTGAYDNLGFNKKLYFNPGFFNE | soluble
10 | MTQFTTELLNFLAQKQDIDEFFRSSLETAMNDLLQVELSAFLGYEPYDKAGYNTGNSRNGAYTRRFETKYGVVNLLIPRDRNGEFSPALIPSYGRRDNHLEEMVIKLYRTGVTTREISDIIERMYGHHYSPATVSNISKATQENVASFHERSLEANYTVLYLDGTYLPLRRGTVSKECIHIALGVTSYGHKAILGYDIAPNENNASWSDLLERFKGQGVQQVSLVVSDGFNGLDQLIQQAFPMAKQQRCLVHIGRNIASKVKRADRALILEQFKTIYRAINVEEAKQALDSFINEWKPHYKKVIETLESIENLLIFYEFPHQIWGSIYSTNLIESLNKEIKRQTKKKVVFPNEESLERYLVTLFSDYNFKQGQRIHKGFGQCTDTLESLFD | not soluble
11 | MTQIIKIDPLNPEIDKIKIAADVIRNGGTVAFPTETVYGLGANAFDGNACLKIFQAKNRPVDNPLIVHIADFNQLFEVAKDIPDKVLEIAQIVWPGPLTFVLKKTERVPKEVTAGLDTVAVRMPAHPIALQLIRESGVPIAAPSANLATRPSPTKAEDVIVDLNGRVDVIIDGGHTFFGVESTIINVTVEPPVLLRPGPFTIEELKKLFGEIVIPEFAQGKKEAEIALAPGMKYKHYAPNTRLLLVENRNIFKDVVSLLSKKYKVALLIPKELSKEFEGLQQIILGSDENLYEVARNLFDSFRELDKLNVDLGIMIGFPERGIGFAIMNRARKASGFSIIKAISDVYKYVNI | soluble
12 | MTQTPDREKALELAVAQIEKSYGKGSVMRLGDEARQPISVIPTGSIALDVALGIGGLPRGRVIEIYGPESSGKTTVALHAVANAQAAGGVAAFIDAEHALDPDYAKKLGVDTDSLLVSQPDTGEQALEIADMLIRSGALDIVVIDSVAALVPRAELEGEMGDSHVGLQARLMSQALRKMTGALNNSGTTAIFINQLRDKIGVMFGSPETTTGGKALKFYASVRMDVRRVETLKDGTNAVGNRTRVKVVKNKCLAPFKQAEFDILYGKGISREGSLIDMGVDQGLIRKSGAWFTYEGEQLGQGKENARNFLVENADVADEIEKKIKEKLGIGAVVTDDPSNDGVLPAPVDF | soluble
13 | MTRFSGKVALVTGSSNGIGRATAVLLAQEGAKVTITGRNADRLEETRQEILKSGVPEDHVLSIATDLATEKGQDELVNSTIQKFGRLDILVNNAGAAFNDDQGRVGVDQDVSVYDRIMQINMRSVVTLTQKAKEHLVKAKGEVVNVSSIGAGPQAQPTFMYYAMSKAALDQYTRSAAIDLIQYGVRVNSVSPGAVVTGFGEAMGMPADMHEKYGHFMESRKECIPCGKMGQPIDIANIIAFLADRKLSSYIIGQSIVADGGSTLVMGMQAHNFMDLLKQ | not soluble
14 | MTRLTLALDVMGGDFGPSVTVPAALQALNANSQLTLLLVGNPDIITPLLAKADFEQRSRLQIIPAQSVIASDARPSQAIRASRGTSMRVALELVKEGRAEACVSAGNTGALMGLAKLLLKPLEGIERPALVTVLPHQQKGKTVVLDLGANVDCDSTMLVQFAVMGAVLAEEVVGIKNPRVALLNIGEEETKGLDSIREASLMLKTVPTINYIGYLEANELLTGKTDVLVCDGFTGNVTLKTMEGVVRMFLSLLKSQGEGKKRSWWLLLLKRWLQKSLTRRFSHLNPDQYNGACLLGLRGTVIKSHGAANQRAFAVAIEQAVQAVQRQVPQRIAARLESVYPAGFEPLDDGKGVNLRAHR | not soluble
15 | MTRPHQPRIDLNHGFLRFIRRNQVDRDEYNRVHEERKSEIRERIGSSDSSQDGEEKAQSNVYVPPHLRRQKKENEEKFSALKASRSQSQSDTGSEEGEGASGGGEASCPIQQKQKAFDENVRRQVRRRIERTHPTVDDICIVLANYSLQEAASKNSENSNEDLFELVLTLKSGEQKTIGVPRNTQAARLAKSLSREHHFSDSQCRNLRIFIEEQLELRFAREKSTATSSDASIPGSPTSSSESSIIEFSA | not soluble
16 | MTRPLIVAAVIGSALAWHGSAQAQHSQAVAPAEPCTPVVLIERTGTCYAQVDPRFVTTLYFPRMVTSAVSSDERYFRASIVDDSVIVRPARDIDADALGNLSITAGEMKVSIMLGVAGHSSEVLPQIDFRALSEAEVFDARVAAEAERLHQDVKREYERRHRELEGEVTREATQLVGERLLQRHEPVRIDAIARNDDNVIVRVERGVWVGHELYLFFTVQNRSGTPYRVTHVGVFEESEHRAVADAGRAGQVEFDSAAPLVAGLLGTVRVDQFGRGVVHVRDARGAAGRRMTLRVSEERGERPVSVGGLSWR | not soluble
17 | MTRVAINGFGRIGRMVFRQAIKESAFEIVAINASYPSETLAHLIKYDTVHGKFDGTVEAFEDHLLVDGKMIRLLNNRDPKELPWTDLGVEVVIEATGKFNSKEKAILHVEAGAKKVILTAPGKNEDVTIVVGVNEDQLDITKHTVISNASCTTNCLAPVVKVLDEQFGIENGLMTTVHAYTNDQKNIDNPHKDLRRARACGQSIIPTTTGAAKALAKVLPHLNGKLHGMALRVPTPNVSLVDLVVDVKRDVTVEAINDAFKTVANGALKGIVEFSEEPLVSIDFNTNTHSAIIDGLSTMVMGDRKVKVLAWYDNEWGYSRRVVDLVTLVVDELAKQENVQHI | soluble
18 | MTSIHVQVPATTANIGAGFDCLGAALSLHNQFQFRLAGESEPFFSLELVGADVETQKLEATADNLLYRAFAKVFATLGQPVPHVNIAIDLKVPLSRGLGSSATAIVGGLVGANALAGSPLSQREIMNLAIEMEGHPDNVVPALLGGCQLSVKHQQDWVI | not soluble
19 | MTSITPSIQFFAGIFEELSNVSLRREVRTGKRIVMMKFNQLQAIEGFNSFTKQSLNSLLLTDEEGEISVTPSATRFIFGGDEGDELQGVECKFEVERDDHWERFMRFMNRYAEANDMEYGERLEHHHHHH | soluble
